{"source": "patent EP2832747A1", "about": "(Université Catholique de Louvain, dated 2015)", "binders": {"B1": {"name": "MHGARP8 (antibody, V domains shown)", "VH": "QVQLKESGPGLVAPSQSLSITCTVSGFSLTGYGINWVRQPPGKGLEWLGMIWSDGSTDYNSVLTSRLRISKDNSNSQVFLKMNSLQVDDTARYYCARDRNYYDYDGAMDYWGQGTSVTVSS", "VL": "DIQVTQSSSYLSVSLGDRVTITCKASDHIKNWLAWYQQKPGIAPRLLVSGATSLEAGVPSRFSGSGSGKNFTLSITSLQTEDVATYYCQQYWSTPWTFGGGTTLEIR", "notes": "Mouse monoclonal from hybridoma MHGARP8 (LMBP 10246CB); used biotinylated in flow cytometry; also called MGARPB; antibody of hybridoma LMBP 10246CB"}}, "molecular_target": "T1, shGARP-TGFβ (human)", "T1 construct": "also called immobilized shGARP-TGFβ", "T1 sequence (Q14392 20-627)": "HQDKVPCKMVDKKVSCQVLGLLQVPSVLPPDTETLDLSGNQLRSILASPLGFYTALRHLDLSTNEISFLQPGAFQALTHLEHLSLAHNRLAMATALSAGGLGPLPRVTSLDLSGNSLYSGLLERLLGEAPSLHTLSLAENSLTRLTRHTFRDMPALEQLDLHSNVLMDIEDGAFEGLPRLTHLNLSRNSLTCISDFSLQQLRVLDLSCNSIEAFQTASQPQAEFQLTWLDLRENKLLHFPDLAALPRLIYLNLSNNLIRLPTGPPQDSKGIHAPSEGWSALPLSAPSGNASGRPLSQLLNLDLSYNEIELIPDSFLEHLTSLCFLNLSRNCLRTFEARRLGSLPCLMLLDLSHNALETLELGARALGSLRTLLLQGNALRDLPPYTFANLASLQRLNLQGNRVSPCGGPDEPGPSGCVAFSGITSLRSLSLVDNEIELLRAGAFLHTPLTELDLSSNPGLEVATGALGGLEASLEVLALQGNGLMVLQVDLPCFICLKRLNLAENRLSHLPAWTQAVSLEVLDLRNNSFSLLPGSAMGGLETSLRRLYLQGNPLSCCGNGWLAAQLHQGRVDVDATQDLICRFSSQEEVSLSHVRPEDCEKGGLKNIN", "assay": "BIACOR analysis (SPR), immobilized shGARP-TGFβ", "data": [{"binder": "B1", "values": [{"measurement": "Kd", "result": 0.2, "unit": "nM"}]}]}
